In one assay the target is T1, KRAS(G13D), GDP-bound (Meleagris gallopavo (Wild turkey), UniProt P79800 1-174, GDP bound non-covalently; biotin on the N-terminal Avi-tag, and the tag is not in the letters).
T1 construct: Same protein as m19, loaded with GDP
The assay is described as follows: yeast display titration, flow cytometry. (In flow cytometry, cells or beads pass a laser one at a time.)

The target in another assay is T2, KRAS(G12D), GDP-bound (Meleagris gallopavo (Wild turkey), UniProt P79800 1-174, GDP bound non-covalently; biotin on the N-terminal Avi-tag, and the tag is not in the letters).
T2 construct: Same protein as m17, loaded with GDP
The assay is described as follows: yeast display titration, flow cytometry.

The target of another assay is T3, KRAS(G12D), GTPγS-bound (Meleagris gallopavo (Wild turkey), UniProt P79800 1-174, GTPγS bound non-covalently; biotin on the N-terminal Avi-tag, and the tag is not in the letters).
T3 construct: Loaded with GTPγS; tagged and biotinylated in the yeast-display assay
The assay is described as follows: yeast display titration, flow cytometry.

Another assay has as its target T4, KRAS(G13D), GTPγS-bound (Meleagris gallopavo (Wild turkey), UniProt P79800 1-174, GTPγS bound non-covalently; biotin on the N-terminal Avi-tag, and the tag is not in the letters).
T4 construct: Loaded with GTPγS; tagged and biotinylated in the yeast-display assay
The assay is described as follows: yeast display titration, flow cytometry.

The target in assay [1] is KRAS(G12V) in cells (endogenous in PATU8902 and H441) (UniProt P01116-2 1-185, limits assumed).

B1: Monobody 12VC1 (designed binder)
chain: VSSVPTKLEVVAATPTSLLISWDAPAVTVFFYVITYGETGHGVGAFQAFKVPGSKSTATISGLKPGVDYTITVYARGYSKQGPYKPSPISINYRT
For B1, the binding result in the assay with KRAS(G13D), GDP-bound is given as “no binding (tested: 100 nM)”; with KRAS(G12D), GDP-bound, “no binding (tested: 100 nM)”; with KRAS(G12D), GTPγS-bound, “no binding (tested: 100 nM)”; with KRAS(G13D), GTPγS-bound, “no binding (tested: 100 nM)”. Besides, the FoldChange in assay [1] was 1360.

Source of the values: patent publication US20220177531A1 (NEW YORK UNIVERSITY, published 2022).
